In patent US20150175697A1 (MacroGenics, published 2015):

What was measured:
sCD32B-Ig = molecular target: T1, sCD32B-Ig (UniProt P31994 43-217); experiment: sandwich ELISA, sCD32B-Ig coat, sCD16A probe
T1 construct: extracellular domain; also called CD32B-Fc; CD32-Fc; not shown: Ig/Fc part not described
T1 sequence (looked up): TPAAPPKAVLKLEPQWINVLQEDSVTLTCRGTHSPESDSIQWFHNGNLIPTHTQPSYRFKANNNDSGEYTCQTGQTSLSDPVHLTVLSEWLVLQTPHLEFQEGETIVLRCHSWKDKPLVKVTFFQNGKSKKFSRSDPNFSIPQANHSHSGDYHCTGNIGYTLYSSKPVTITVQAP

soluble CD32B (sCD32B) [1] = molecular target: T2, soluble CD32B (sCD32B) (human, UniProt P31994 43-217); experiment: sandwich ELISA: sCD32B coated (sCD32B-Ig, 2 ug/ml), diabody titrated, labelled sCD16A as probe
T2 construct: extracellular domain; also called FcγRIIB; soluble CD32B ectodomain
T2 sequence (looked up): T1 sequence (looked up)

soluble CD32A (sCD32A) = molecular target: T3, soluble CD32A (sCD32A) (UniProt P12318 34-217, limits assumed); experiment: SPR (BIAcore): sCD32A (negative control) immobilised, diabody injected for 60 s
T3 construct: extracellular domain; also called sCD32A (negative control)
T3 sequence (looked up): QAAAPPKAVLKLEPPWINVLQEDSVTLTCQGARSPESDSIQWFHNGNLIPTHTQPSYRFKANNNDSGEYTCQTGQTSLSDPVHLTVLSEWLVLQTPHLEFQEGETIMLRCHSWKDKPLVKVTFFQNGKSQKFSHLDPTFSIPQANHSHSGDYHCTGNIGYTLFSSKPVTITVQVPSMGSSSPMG

soluble CD32B (sCD32B) [2] = molecular target: T2, soluble CD32B (sCD32B); experiment: SPR (BIAcore), receptor immobilised
soluble CD16A (sCD16A) = molecular target: T4, soluble CD16A (sCD16A) (human, UniProt P08637 17-208); experiment: SPR (BIAcore): sCD16 immobilised, diabody injected for 60 s
T4 construct: extracellular domain; given only as soluble; immobilised in SPR, plate coat or biotin/HRP-labelled probe in ELISA; also called FcγRIIIA; sCD16A-Biotin
T4 sequence (P08637 17-208): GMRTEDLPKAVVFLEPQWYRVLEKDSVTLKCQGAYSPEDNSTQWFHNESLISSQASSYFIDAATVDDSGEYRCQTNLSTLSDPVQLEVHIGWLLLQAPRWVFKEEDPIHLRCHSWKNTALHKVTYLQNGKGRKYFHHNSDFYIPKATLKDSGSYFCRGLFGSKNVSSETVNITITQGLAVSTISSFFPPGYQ

[3] = molecular target: T5, human serum albumin (HSA) (human, UniProt P02768 25-609); experiment: HSA binding class
T5 construct: also called HRP-human albumin

B1: h3G8 covalent monospecific diabody (CMD) (other)
chain: DIVMTQSPDSLAVSLGERATINCKASQSVDFDGDSFMNWYQQKPGQPPKLLIYTTSNLESGVPDRFSGSGSGTDFTLTISSLQAEDVAVYYCQQSNEDPYTFGQGTKLEIKGGGSGGGGQVTLRESGPALVKPTQTLTLTCTFSGFSLSTSGMGVGWIRQPPGKALEWLAHIWWDDDKRYNPALKSRLTISKDTSKNQVVLTMTNMDPVDTATYYCAQINPAWFAYWGQGTLVTVSSLGGC
modifications: covalent homodimer: two copies of this chain, disulfide-linked through the C-terminal LGGC cysteine
notes: covalent homodimer; also called h3G8 CMD; h3G8 diabody
sCD32B-Ig
  binding result: no binding (tested: 0.5 µg/ml to 0.001 µg/ml)
Soluble CD32B (sCD32B) [1]
  binding result: no binding (tested: 0.5 ug/ml)
Soluble CD32A (sCD32A)
  binding result: no binding (tested: 100 nM)

B2: h2B6 covalent monospecific diabody (CMD) (other)
chain: EIVLTQSPDFQSVTPKEKVTFTCRTSQSIGTNIHWYQQKPDQSPKLLIKEVSESISGVPSRFSGSGSGTDFTLTINSLEAEDAATYYCQQSNTWPFTFGGGTKVEIKGGGSGGGGQVQLVQSGAEVKKPGASVKVSCKASGYTFTNYWIHWVRQAPGQGLEWIGVIDPSDTYPNYNKKFKGRVTMTVVVSTSTAYMELRSLRSDDTAVYYCARNGDSDYYSGMDYWGQGTTVTVSSLGGC
modifications: covalent homodimer: two copies of this chain, disulfide-linked through the C-terminal LGGC cysteine
notes: covalent homodimer; also called h2B6 CMD; h2B6 diabody
Soluble CD32A (sCD32A)
  binding result: no binding (tested: 100 nM)
Soluble CD32B (sCD32B) [2]
  Kd: 21 nM
Soluble CD16A (sCD16A)
  binding result: no binding (tested: 100 nM)

## LAEAKVLANRELDKYGVSDYYKNGANNAKTAEGVKALIDEILAALP (other, also called 64G/65A/71A) [ABD3 L64G/I65A/V71A]
[3]
  HSA binding: < 0.1
